Results on 29 sequences are retold here after the Immune Epitope Database (IEDB).

Targets include HLA-A*31:01; HLA-A*11:01; HLA-A*68:01; HLA-A*33:01; HLA-A*03:01.
Common to all, as to test: IEDB peptide-MHC binding, purified MHC/competitive/radioactivity; filed as Kd, often an IC50 or EC50 that approximates it; ≥ and ≤ were set here for values at or beyond the usual limits of such assays
[1] abbreviates: source organism: Vaccinia virus WR.
Where [2] appears, read: source organism: SARS coronavirus Tor2.
Setting [3] is: source organism: Dengue virus 3 Martinique/1243/1999.
Where [4] appears, read: source organism: Dengue virus 2 Jamaica/1409/1983.
Setting [5] is: source organism: Lassa virus Josiah.
Setting [6] is: source organism: Mammarenavirus machupoense.
[7] abbreviates: source organism: Mammarenavirus guanaritoense.
[8] abbreviates: source organism: Mammarenavirus brazilense.

Some results are limits rather than exact numbers.

One may read the Kd as a measure of binding affinity in units of concentration. Turning to AAIDRQVSVK, the Kd is 16500 nM with HLA-A*31:01 (setting [1]); 10.6 nM with HLA-A*11:01 (setting [1]); 693 nM in the assay with HLA-A*68:01 (setting [1]); not below 70000 nM with HLA-A*33:01 (setting [1]); 257 nM with HLA-A*03:01 (setting [1]).
Take AALDGTFQR: the Kd with HLA-A*31:01 (setting [1]) came out at 36.4 nM; with HLA-A*11:01 (setting [1]), 2.62 nM; with HLA-A*68:01 (setting [1]), 1.95 nM; with HLA-A*33:01 (setting [1]), 177 nM; with HLA-A*03:01 (setting [1]) it was 6210 nM.
For AAYYFMKFRR, the Kd with HLA-A*31:01 (setting [2]) came out at 41 nM; with HLA-A*11:01 (setting [2]) it was 132 nM; with HLA-A*68:01 (setting [2]) it was 79.2 nM; with HLA-A*33:01 (setting [2]) it was 277 nM; in the assay with HLA-A*03:01 (setting [2]), 3050 nM.
Turning to ALINLVQYR, the Kd with HLA-A*31:01 (setting [1]) turned out to be 137 nM; in the assay with HLA-A*11:01 (setting [1]), 3920 nM; in the assay with HLA-A*68:01 (setting [1]), 258 nM; with HLA-A*33:01 (setting [1]), 17400 nM; with HLA-A*03:01 (setting [1]) it was 6500 nM.
Turning to ALLALNDMGK, the Kd with HLA-A*11:01 (setting [3]) worked out at 196 nM; with HLA-A*03:01 (setting [3]) it was 28.4 nM.
AQPLPQRQKK: the Kd in the assay with HLA-A*31:01 (setting [2]) was not below 32700 nM; in the assay with HLA-A*11:01 (setting [2]), 1230 nM; in the assay with HLA-A*68:01 (setting [2]), not below 70200 nM; in the assay with HLA-A*33:01 (setting [2]), not below 27500 nM; with HLA-A*03:01 (setting [2]) it was not below 33400 nM.
As for ASANLAATK, the Kd was 1030 nM with HLA-A*31:01 (setting [2]); 14.4 nM with HLA-A*11:01 (setting [2]); 78.3 nM with HLA-A*68:01 (setting [2]); not below 77700 nM with HLA-A*33:01 (setting [2]); 77.1 nM with HLA-A*03:01 (setting [2]).
For ASITPNNLNK, the Kd with HLA-A*31:01 (setting [1]) is 47.6 nM; in the assay with HLA-A*11:01 (setting [1]) it was 1.11 nM; with HLA-A*68:01 (setting [1]) it was 6.94 nM; in the assay with HLA-A*33:01 (setting [1]), not below 29800 nM; in the assay with HLA-A*03:01 (setting [1]), 1.29 nM.
Taken in the same sequence, the figures for ASKKDKLTVY were 5290 nM, 1220 nM, not below 70200 nM, not below 70000 nM and 6590 nM.
In the case of ASLPTYLSSR, in the assay with HLA-A*31:01 (source organism: Dengue virus 4 Philippines/H241/1956), the Kd came out at 7.6 nM.
Consider ASMGFKVTTR, for which the Kd is 0.416 nM in the assay with HLA-A*31:01 (setting [1]); 0.174 nM with HLA-A*11:01 (setting [1]); 15.4 nM with HLA-A*68:01 (setting [1]); 532 nM with HLA-A*33:01 (setting [1]); 14 nM with HLA-A*03:01 (setting [1]).
In the case of ATIQRFSSLR, the Kd turned out to be 0.626 nM in the assay with HLA-A*31:01 (setting [1]); 4.64 nM with HLA-A*11:01 (setting [1]); 6.84 nM in the assay with HLA-A*68:01 (setting [1]); 244 nM with HLA-A*33:01 (setting [1]); 23.4 nM with HLA-A*03:01 (setting [1]).
For CTGKFKIVK, the Kd in the assay with HLA-A*11:01 (setting [4]) is 98.3 nM.
DAHKKNLYDH: the Kd in the assay with HLA-A*31:01 (setting [5]) is 3430 nM; in the assay with HLA-A*11:01 (setting [5]), not below 69700 nM; with HLA-A*68:01 (setting [5]) it was not below 70100 nM; with HLA-A*33:01 (setting [5]) it was not below 70000 nM; with HLA-A*03:01 (setting [5]), not below 70000 nM.
DILGVLTIK: the Kd was 12600 nM with HLA-A*31:01 (setting [1]); 1120 nM in the assay with HLA-A*11:01 (setting [1]); 343 nM with HLA-A*68:01 (setting [1]); 194 nM with HLA-A*33:01 (setting [1]); 714 nM in the assay with HLA-A*03:01 (setting [1]).
Turning to DIQQWEPSR, the Kd in the assay with HLA-A*33:01 (setting [4]) came out at 113 nM.
On the same count and under the same terms, for DLPVWLAYR the value was 4 nM.
In the case of DSVKSILKWH, the Kd in the assay with HLA-A*31:01 (setting [6]) is 2650 nM; in the assay with HLA-A*11:01 (setting [6]), not below 69700 nM; in the assay with HLA-A*68:01 (setting [6]) it was not below 70100 nM; with HLA-A*33:01 (setting [6]) it was not below 33100 nM; with HLA-A*03:01 (setting [6]), not below 70000 nM.
On to DTIESAKTK, for which the Kd in the assay with HLA-A*31:01 (setting [1]) worked out at 11300 nM; with HLA-A*11:01 (setting [1]), 672 nM; in the assay with HLA-A*68:01 (setting [1]) it was 5.82 nM; with HLA-A*33:01 (setting [1]), 3590 nM; in the assay with HLA-A*03:01 (setting [1]), 4100 nM.
As to DVSMMSMYGK, the Kd came to 231 nM with HLA-A*31:01 (setting [1]); 1.28 nM with HLA-A*11:01 (setting [1]); 1.21 nM with HLA-A*68:01 (setting [1]); 584 nM with HLA-A*33:01 (setting [1]); 149 nM with HLA-A*03:01 (setting [1]).
As for DWTDGSRGYR, the Kd came out at 918 nM in the assay with HLA-A*31:01 (setting [7]) and 1170 nM in the assay with HLA-A*33:01 (setting [7]).
For DYMTSMKRFK, the Kd in the assay with HLA-A*33:01 (source organism: Dengue virus 1 Brazil/97-11/1997) is 21.2 nM.
EAKQPATLR: the Kd came to 74.8 nM with HLA-A*68:01 (setting [4]) and 10.1 nM with HLA-A*33:01 (setting [4]).
EANASAQTK: the Kd in the assay with HLA-A*31:01 (setting [1]) was not below 56300 nM; with HLA-A*11:01 (setting [1]), 2600 nM; with HLA-A*68:01 (setting [1]), 27.3 nM; with HLA-A*33:01 (setting [1]), 12500 nM; with HLA-A*03:01 (setting [1]), 1560 nM.
In the case of EASIQPITR, the Kd in the assay with HLA-A*68:01 (source organism: Homo sapiens) was 50 nM.
As to EFLHYCNSY, the Kd in the assay with HLA-A*31:01 (setting [1]) is not below 37700 nM; in the assay with HLA-A*11:01 (setting [1]), not below 31600 nM; with HLA-A*68:01 (setting [1]), not below 24600 nM; in the assay with HLA-A*33:01 (setting [1]), 6030 nM; with HLA-A*03:01 (setting [1]), not below 78000 nM.
Turning to EIMDKEQLLK, the Kd with HLA-A*31:01 (setting [1]) is not below 50900 nM; with HLA-A*11:01 (setting [1]), 87.8 nM; with HLA-A*68:01 (setting [1]), 5.42 nM; in the assay with HLA-A*33:01 (setting [1]), 9850 nM; with HLA-A*03:01 (setting [1]) it was 1320 nM.
In the case of EMGANFKADR, the Kd in the assay with HLA-A*33:01 (setting [3]) worked out at 1540 nM.
Regarding FKVAFSKHYK, the dissociation constant (Kd) with HLA-A*31:01 (setting [8]) came to 48.3 nM; in the assay with HLA-A*11:01 (setting [8]), 2140 nM; with HLA-A*68:01 (setting [8]), 582 nM; with HLA-A*33:01 (setting [8]), 3190 nM; with HLA-A*03:01 (setting [8]), 279 nM.
